Source: article PMC5762396 (Archives of biochemistry and biophysics, 2017)
One block for each binder: values may come before it.

Biological target: G-actin (WT α-skeletal muscle actin from chicken) (chicken, UniProt P68139 1-377)
Experiment: atomic force microscopy

peak value of unbinding force: 64 ± 3.6 pN
B1: Tmod2_(1-346) (domain or fragment)
chain: MALPFQKGLEKYKNIDEDELLGKLSEEELKQLENVLDDLDPESATLPAGFRQKDQTQKAATGPFDREHLLMYLEKEALEQKDREDFVPFTGEKKGRVFIPKEKPVETRKEEKVTLDPELEEALASASDTELYDLAAVLGVHNLLNNPKFDEETTNGEGRKGPVRNVVKGEKAKPVFEEPPNPTNVEASLQQMKANDPSLQEVNLNNIKNIPIPTLKEFAKSLETNTHVKKFSLAATRSNDPVALAFAEMLKVNKTLKSLNVESNFITGTGILALVEALRENDTLTEIKIDNQRQQLGTAVEMEIAQMLEENSRILKFGYQFTKQGPRTRVAAAITKNNDLVRKKRV

peak value of unbinding force: 105 ± 2.2 pN
B2: Tmod2[L73D] (natural protein)
chain: MALPFQKGLEKYKNIDEDELLGKLSEEELKQLENVLDDLDPESATLPAGFRQKDQTQKAATGPFDREHLLMYDEKEALEQKDREDFVPFTGEKKGRVFIPKEKPVETRKEEKVTLDPELEEALASASDTELYDLAAVLGVHNLLNNPKFDEETTNGEGRKGPVRNVVKGEKAKPVFEEPPNPTNVEASLQQMKANDPSLQEVNLNNIKNIPIPTLKEFAKSLETNTHVKKFSLAATRSNDPVALAFAEMLKVNKTLKSLNVESNFITGTGILALVEALRENDTLTEIKIDNQRQQLGTAVEMEIAQMLEENSRILKFGYQFTKQGPRTRVAAAITKNNDLVRKKRVEGDRR
